Measured values reported in patent publication US20210300999A1 (VANDERBILT UNIVERSITY, published 2021).

Tests used:
[1] = target: T1, SARS-CoV-2 prefusion-stabilized trimeric spike ectodomain (S2Pecto) (SARS-CoV-2, UniProt P0DTC2 14-1213; P10104 458-484); test: hACE2 blocking ELISA on coated S2Pecto; competitor hACE2
[2] = target: SARS-CoV-2 Spike trimer (Table A) (SARS-CoV-2, UniProt P0DTC2 14-1208); test: ELISA, purified IgG
[3] = target: T1, SARS-CoV-2 prefusion-stabilized …; test: ELISA on coated antigen

B1: COV2-3025 (antibody, V domains shown)
VH: EVQLVQSGPEVKKPGTSVKVSCKASGFTFMSSAVQWVRQARGQRLEWIGWIVIGSGNTNYAQKFQERVTITRDMSTSTAYMELSSLRSEDTAVYYCAAPYCSSISCNDGFDIWGQGTMVTVSS
VL: EIVLTQSPGTLSLSPGERVTLSCRASQSVSSSYLAWYQQKPGQAPRLLIYGASSRATGIPDRFSGSGSGTDFTLTISRLEPEDFAVYYCQHYGSSRGWTFGQGTKVEIK
[1]
  IC50: 0.041 µg/mL
[2]
  ELISA OD 450 nm: 3.7 OD 450 nm
[3]
  EC50: 1.1 ng/mL

B2: COV2-2514 (antibody, V domains shown)
VH: EVQLVESGGGVVRPGGSLRLSCAASGFIFDDYDMTWVRQAPGKGLEWVSGINWNGGSTGYADSVKGRFTISRDNAKNSLYLQMNSLRAEDTALYHCAVIMSPIPRYSGYDWAGDAFDIWGQGTMVTVSS
VL: SSELTQDPAVSVALGQTVRITCQGDSLRSYYASWYQQKPGQVPILVIYDKNNRPSGIPDRFSGSSSGNTASLTITGAQAEDEADYYCNSRDSSGNAVVFGGGTKLTVL
[2]
  ELISA OD 450 nm: 3.56 OD 450 nm

B3: COV2-2094 (antibody, V domains shown)
VH: EVQLVESGGGVVRPGGSLRLSCAASGFIFDDYDMTWVRQAPGKGLEWVSGINWNGGSTGYADSVKGRFTISRDNAKNSLYLQMNSLRAEDTALYHCAVIMSPIPRYSGYDWAGDAFDIWGQGTMVTVSS
VL: SSELTQDPAVSVALGQTVRITCQGDSLRSYYASWYQQKPGQVPILVIYDKNNRPSGIPDRFSGSSSGNTASLTITGAQAEDEADYYCNSRDSSGNAVVFGGGTKLTVL
[1]
  IC50: 0.053 µg/mL
[2]
  ELISA OD 450 nm: 4.3 OD 450 nm
[3]
  EC50: 1.8 ng/mL
